Here are results for 3 molecules from patent US6084068, “Elongin A and C functional domains” (Oklahoma Medical Research Foundation, dated 2000).

In assay [1] the target is T1, Elongin BC complex (wild type rat Elongin B and C) (rat, UniProt P62870).
T1 chain 1: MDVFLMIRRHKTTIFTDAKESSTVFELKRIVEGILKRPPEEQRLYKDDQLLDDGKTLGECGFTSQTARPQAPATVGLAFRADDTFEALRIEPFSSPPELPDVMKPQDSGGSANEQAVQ
T1 chain 2: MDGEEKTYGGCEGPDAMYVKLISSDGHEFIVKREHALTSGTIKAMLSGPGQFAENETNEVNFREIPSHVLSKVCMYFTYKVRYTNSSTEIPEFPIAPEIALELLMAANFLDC
Kind of assay: refolded with rat Elongin B and C; TSK SP-NPR HPLC, SDS-PAGE, silver staining. The protocol: Figure 8A: FIG. 8A. Analysis of wild type and mutant C. elegans Elongin A wherein wild type or mutant C. elegans Elongin A was refolded with rat Elongin B and C and subjected to TSK SP-NPR HPLC as described. Aliquots of the peak column fractions were analyzed by SDS-PAGE, and proteins were visualized by silver staining. WT C.e. […] Figure 8B: FIG. 8B. ~2 pmol of human or C. elegans Elongin A proteins were refolded as described (Bradsher, et al., *J Biol Chem* 268: 25587–25593 (1993)) in the presence or absence of ~2 pmol of rat Elongin B and C. Aliquots of refolded protein were assayed for transcriptional activity in oligo dc-tailed template assays performed as described. Reaction mixtures contained no Elongin (lane 1); 3 and 9 μl of renatured human Elongin A without (lanes 2 and 3) or with (lanes 4 and 5) Elongin B and C; 3 and 9 μl of renatured wild type C. elegans Elongin A without (lanes 6 and 7) or with (lanes 8 and 9) Elongin B and C; 3 and 9 μl of renatured C.e. EloA(94–434) (SEQ ID NO:44) without (lanes 10 and 11) or with (lanes 12 and 13) Elongin B and C; 3 and 9 μl of renatured C.e. EloA (202–434) (SEQ ID NO:45) with (lanes 14 and 15) or without (lanes 16, and 17) Elongin B and C.

For a further assay, the target named is wild type Elongin B (rat, UniProt P62870). As to the kind of experiment: refolded with wild type Elongin B; TSK DEAE-NPR HPLC, SDS-PAGE, silver staining. The protocol:
Figure 10A: FIG. 10A. […] Aliquots of the indicated column fractions were analyzed by SDS-PAGE, and proteins were visualized by silver staining. Figure 10B: FIG. 10B. N-terminal, C-terminal, and internal Elongin C deletion mutants were assayed for their abilities to form Elongin BC complexes as described.
~6 µg of Elongin B was mixed with ~6 µg of either wild type or mutant Elongin C and diluted 5-fold with 40 mM Hepes-NaOH (pH 7.9), 100 mM KCl, 2 mM DTT, 50 µM ZnSO_4, 0.1 mM EDTA, and 10% (v/v) glycerol. After incubation for 90 min on ice, the mixtures were dialyzed at 4° C. overnight against 40 mM Tris-HCl (pH 7.9), 0.1 mM EDTA, 10% (v/v) glycerol, and 40 mM KCl. Following dialysis, the mixtures were centrifuged at 60,000×g for 15 min at 4° C. The resulting supernatants were applied to TSK DEAE-NPR columns (35 mm×4.6 mm, Toso-Haas) pre-equilibrated in 40 mM Tris-HCl (pH 7.9), 0.1 mM EDTA, 1 mM DTT, 10% (v/v) glycerol, and 40 mM KCl and fractionated using a SMART microchromatography system (Pharmacia) at 8° C. The columns were eluted at 0.3 ml/min with a 3 ml linear gradient from 0.04 to 0.5M KCl in 40 mM Tris-HCl (pH 7.9), 0.1 mM EDTA, 1 mM DTT, and 10% (v/v) glycerol. Aliquots of each column fraction were analyzed by 10% Tris-Tricine SDS-polyacrylamide gel electrophoresis, and the proteins were visualized by silver staining.

A further assay has as its target T2, wild type Elongin A (rat).
T2 chain: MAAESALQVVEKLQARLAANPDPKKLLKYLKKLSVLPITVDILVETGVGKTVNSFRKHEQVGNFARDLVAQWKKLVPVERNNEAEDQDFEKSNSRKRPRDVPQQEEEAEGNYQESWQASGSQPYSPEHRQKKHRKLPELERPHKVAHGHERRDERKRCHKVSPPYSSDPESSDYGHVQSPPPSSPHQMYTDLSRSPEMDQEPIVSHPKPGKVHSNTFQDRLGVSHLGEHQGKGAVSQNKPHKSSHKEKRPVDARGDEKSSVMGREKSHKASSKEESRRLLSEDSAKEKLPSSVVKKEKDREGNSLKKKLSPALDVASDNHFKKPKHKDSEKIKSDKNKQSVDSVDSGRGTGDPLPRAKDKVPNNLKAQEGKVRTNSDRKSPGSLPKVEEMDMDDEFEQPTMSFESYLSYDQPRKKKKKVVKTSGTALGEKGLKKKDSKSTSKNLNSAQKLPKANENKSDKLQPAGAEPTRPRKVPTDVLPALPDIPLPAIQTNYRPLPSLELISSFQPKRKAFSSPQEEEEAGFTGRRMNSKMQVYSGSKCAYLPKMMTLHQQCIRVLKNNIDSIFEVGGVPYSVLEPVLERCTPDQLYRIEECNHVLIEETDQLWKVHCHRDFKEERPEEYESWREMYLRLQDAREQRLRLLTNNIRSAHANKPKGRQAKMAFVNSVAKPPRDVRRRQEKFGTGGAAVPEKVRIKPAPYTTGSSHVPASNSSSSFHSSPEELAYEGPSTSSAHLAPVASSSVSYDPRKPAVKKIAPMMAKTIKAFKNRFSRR
As to the kind of experiment: refolded with wild type Elongin A and B; TSK SP-NPR HPLC, SDS-PAGE, silver staining.

B1: C. elegans Elongin A mutant C.e.EloA(202-434) (other)
chain: KERQKVFAGRRKRVGEGVSTLVSLCQTVLMSHIDMIDHVGIVPFDLLKPVLDHASTDQLRHILDVNPMLVEDADEMFHEMVSREFPKYANREKSGWTWREMYDRLVEKKQKKENDKLEMLTSRIGKSNSAQSQGRQTMVIDMAHTRVRSKSFFNTVKDSQVKMSATPSALQLSQARKNVKIEGKAQLRTITPRGGGVPSTSRSRSNNNNNMNNGLVVKKTAPLMAKCKKMLKR
Regarding B1, in assay [1], the binding result is recorded as “binds”.

B2: Elongin C internal deletion mutant C(Δ21-30) (other)
chain: MDGEEKTYGGCEGPDAMYVKVKREHALTSGTIKAMLSGPGQFAENETNEVNFREIPSHVLSKVCMYFTYKVRYTNSSTEIPEFPIAPEIALELLMAANFLDC
On to B2, for which the binding result with wild type Elongin B and in the assay with wild type Elongin A was “no binding” each time.

B3: wild type C. elegans Elongin A (other)
chain: MPETDEEKVRRYTECLMNGIDPKRALKRLYDLNVSPEVFKSADTVQCVKRYESSPELAKYAKRVRDKLLGGRKREKGGGEDDADIEHTALKKAKKEEVNLDEEFAEAMKSGVSAQASSAPRATVDYSKYKVVKRVEVKVEPKPEPVDVHEQQASSSSMSYQREHQKDYAPVVPTCKPSGQPKKAIPQSKSLHADENMFKPRKERQKVFAGRRKRVGEGVSTLVSLCQTVLMSHIDMIDHVGIVPFDLLKPVLDHASTDQLRHILDVNPMLVEDADEMFHEMVSREFPKYANREKSGWTWREMYDRLVEKKQKKENDKLEMLTSRIGKSNSAQSQGRQTMVIDMAHTRVRSKSFFNTVKDSQVKMSATPSALQLSQARKNVKIEGKAQLRTITPRGGGVPSTSRSRSNNNNNMNNGLVVKKTAPLMAKCKKMLKR
On to B3, for which the binding result in assay [1] was “binds”.
